Measurements as given in the nanobody polyreactivity screen of Harvey et al. (2022).

assay: yeast display, Sf9 membrane polyspecificity reagent, FACS + sequencing; frameworks hold sequencing errors
Procedure, shortened: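 Nanobodies from a synthetic yeast display library (Saccharomyces cerevisiae BJ5465), induced 36–48 hours with galactose, were stained 1 hour at 4 °C with 10% biotinylated, detergent-solubilized Sf9 membrane reagent, enriched on streptavidin microbeads, then FACS-sorted. Anti-HA (expression) and streptavidin (reagent binding) fluorescence set low and high (top ~1%) gates. Polyreactivity labels come from the gate of origin. Genes were colony-PCR amplified, MiSeq 2 × 250 sequenced and filtered by CDR length.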

Sequence | polyreactivity (PSR sort gate)
QVQLVESGGGLVQAGGSLRLSCAASGSILWDNAMGWYRQAPGKERELVATISVSGGGTYYADSVKGRFTISLDNAKNTVYLQMNSLKPEDTSVYYCNARYGNESQGWEDYWGQGTQVTVSS | low polyreactivity
QVQLVESGGGLVQAGGSLRLSCAASGRTFTRYAMGWYRQAPGKERELVATITRGGSTNYADSVKGRFTISRDNAKNTVYLQMNSLKPEDTAVYYCAAGYFIRTRSRYRYDYWGQGTQVTVSS | high polyreactivity
QVQLVESGGGLVKSGGSLRLSCAASGGTFKPNVMGWYIQAPGKERELVAAITSGGSTYYADSVKGRFTISRDNAKNTVYLQMNSLKPEDTAVYYCAASSLRRYGYNYWGQVTQVTVSS | high polyreactivity
QVQLVESGGGLVQAGGSLRLSCAASGRTFRKFAMGWYRQAPGKERELVAASSWSGGSTYYANSVKGRFTISRDNAKNTVYLQMNSLKPDDTAVYYCAAVPVHTGSLYWGFTTGYDYWGQGTQVTVSS | low polyreactivity
QVQLVETGGGLVQAGGSLRLSCAASGRIYYVYDMGWYRQAPGKERELVAAISWSGGSTSYADSVKGRFTISRDNAKYTVYLQMNSLKPDDTAVYYCAATSAIGWGYDYWGQGTQVTVSS | low polyreactivity
QVQLVESGGGLVQAGGSLRLSCAASGIIFGRYAMGWYRQAPGKERELVAVISRSGGSTYYADSVKGRFTISRDYAKNSVYLQMNSLKPEDTAVYYCAARYTPTYNAGLDYWGQGSQVTVSS | high polyreactivity
QVQLVESGGGLVQAGGSLRLSCAAYGRTFWPNAMGWYRQAPGKERELVAAFSRRSGSTYYADSVKGRFTISRDNAKNTVYLQMNSLKPEDTAVYYCAAKYRAHGNHSWGQGTQVTVSS | high polyreactivity
QVQLVESGGGLVQAGGSLRLSCAASGFTFAPNAMGWYRQAHGKERELVAAISSASSTYYADSVKGRFTISRDNAKNTVYLQMNSLKPEDTAVYYCAAREGWGFYYWGQGTQGTVSS | high polyreactivity
QVQLVESGGGLVQAGGSLRLSCAASGRIFYNYGLGWYRQAPGKERELVARITTGGRTNYADSVKGRFTMSRDNAKNTVYLQMNSLKPEDTAVYYCNADGYHSRWYYYNYDYWGQGTQVTVSS | low polyreactivity
QVQLVESGGGFVQAGGSLSLSCAASGSTFIRYVMGWYRQAPGKERELVASITISVGSTYADSVKGRFTISRDNAKNTVYLQMNRMNPEDTAVYYCAASTLKDIYLWFRVDYWGQGTQVTVSS | low polyreactivity
QVQLVESGGGLVQAGGSLRLSCAASGFIFTGNAMGWYRQAPGKERELVAAITGRGSTYYADSVKGRFTISRDNAKNTVYLQMNSLKPEDTAVYYCAAKRWWQYYWGQGTQVTVSS | high polyreactivity
QVQLVESGGGLVQAGGSLRLSCAASGSIFVRYTMGWYRQAPGKEREMVAAISWGGGSTYYADSVKGRFTISRDNAKNTVYLQMNSLKPEDTAVYYCNADWSWYNYYDFDYWGQGTQVTVSS | low polyreactivity
QVQLVESGGGLVQAGGSLRLSCAASGFIFSQYTMGWYRQAPGKERELVAAISFSDSSTFYADSVKGRFTISRDNAKNTVYLQMNSLKPEDTAVYYCAAEWGYRQRYFYATGGYWGQGTQVTVSS | low polyreactivity
QVQLVESGGGLVQAGGSLRLSCAASGRIFPRYAMAWYRQAPGKERELVARITRRGGITYYADSVKGRFTISRDNAKNTVYLQMNSLKPEDTAVYYCNVDYYRGGDFSYGYDYWGQGTQVTVSS | high polyreactivity
QVQLVESGGGVVQAGGSLRLSCAASGRTIDPKAMGWYRQAPGKERELVAAITRTGVRTYYADSVKGRFTISRDNAKNTVYLQLNILKPEYTAVYYCNRYGARSNDYWGQGTQVSVSS | low polyreactivity
QVQLQERGGVLVQAGGSLRLSCAASGTISYAPHMGWYRQATGKERELVAGITIGGTTYYADSVKGRFTISRDNAIHTVYLHMNSLCRGDTAVYFFAAHSEQYTPFYYWGQGTQLTVSS | low polyreactivity
QVQLVESWGGLVQAGGSLRLSCAASGSTFIGYAMGWYRQAPGKERELVAAISWSGGSTYYADSVKGRFTISRDNAKNTVYLQMNSLKPEDTAVYYCAASQYVQGHKYYYWGQGTQVTVSS | high polyreactivity
QVQHVESGGGLVQARGSLRLSCAPSGFTFETNAMGWYRQAPGKEREFDAAISWTTTSTYFADSVKGRVTISRDNAKNTVYLQMNSLKPEDTAVYSCAVGLIREFGWDYDYWGQGTQVTVSS | low polyreactivity
QVQLVESGGGLVQAGGSLRLSCAASGITLYGNVMGWYRQAPGKERELVAAISGGSTFYADSVKGRFTISRDNAKNTVYLQMNSLKPEDTAVYYCSAEGYGYGSNVPYYYWGQGTQVTVSS | low polyreactivity
QVQLVESGGGLVQAGGSLRLSCAASGGTFTFYAMGWYRQATGKERELVATINWSGGSTYYADSVKGRFTISRDNAKNTVYLQMNSLKPEDTAVYYCNAAWPYKSVEYWGQGTQVTVSS | low polyreactivity
QVQLVESGGGLVQAGGSLRLSCAASGRTFGWSAMGWYRQAPGKERELVAAISSSGGSTYYADSVKGRFTISRDNAKNTVYLQMNSLKPEDTAVYYCAKESYRGGFDYWGQGTQVTVSS | high polyreactivity

Sequence | polyreactivity (PSR sort gate)
QVQLVESGGGLVQAGGSLRLSCAASGFTYGANTMGWYRQAPGKERELVADISVRGDRTSYADSVKGRFTISRDNAKNTVYLPMNSLKPEDTAVYYCATDIYQHAKRRYDYWGQGTQVTVSS | low polyreactivity
QVQLVESGGGLVQAGGSLRLSCAASGLIFRGYAMGWYRQAPGKERELVAVISSSGGITRYADSVKGRFTISRDNAKNTVYLQMNSLKPEDTAVSYCATDRAERTGYTRYVKTYNYWGQGTQVTVSS | low polyreactivity
QVQLVESGGGLVQAGGSLRLSCAASGSTVTSNAMGWSRQAPGKERELVAAISSGGSTYYADSVKGRFTISRDNAKNTVYLQMNSLKPEDTAVYYCAAEWHYIYAYDYWGQGTQVTVSS | low polyreactivity
QVQLVESGGGLVQAGGRLRLSCAASGSTFVGNAMGWYRQAPGKERELVAAIRKSGGRTYYADSVKGRFTISRDNAKNTVYLQMNSLKPEDTEVYYCAVDRLLYYLIYYRAGVEGGYWGQGTQVTVSS | high polyreactivity
QVQLVESGGGLVQAGGSLRLSCAASGFTFFVSAMGWYRQAPRKERELVAVITSGGTTNYADSVKGRFTISRDIAKKTVYLQMNSLKPEDTAVYYCNGRGEKRGYYYWGQGTQVSVSS | high polyreactivity
QVQLVESGGGLVQAGGSLRLSCAASGRIFYGYAMGWYRQAPGKERELVAAITYSGGITYYADSVKGRFTISRDNAKNTVYLQMNSLKPEDTAVYYCATSKSSVTGPDLDYWGQGTQVTVSS | high polyreactivity
QVQLVESGGGLVQAGGSLRLSCAASGSIIWRNAMGWYRQAPGKERELVAAITWSRGSTFYADSVKGRFTISRDNAKNTVYLQMNSLKAEDTAVYYCAAYGGRRFDYWGQGTQVTVSS | low polyreactivity
QVQLVESGAGLVQAGGSLRLSCAASGITFYDYAMAWYRQAPGKERELVAAISRSGITYYADSVKGRFTISRDNAKNTVYLQMNSLKPEVTAVYYCAAGRSFDQSMYYWGQGTQVTVSS | high polyreactivity
QVQLVESGGGLVQAGGSLRLSCAASGFIFSYYAMGWYIQEPGKERELVAAITVTGGNTYYADSVKGRFTISRDNAKNTVYLQMNSLIPEDTAVYYCAAVVRGPGVSVYYWGLGTQVTVSS | low polyreactivity
QVQLVESGGGLVQAGGSLRLSCAASGSIFYRNTMGWYRQAPGKERELVASINTGTGTYYADSVKGRFTISRDNAKNTVYLQMNSLKPEDTAVYYCNAKGWVWPFPSYYPYDSWGQGTQVTVSS | high polyreactivity
QVQLVESGGGLVQAGGSLRLSCAASGRIFRVYAMGWYRQAPGKERELVAAITSGGTTYADSVKGRFTISRDYAKNTVYLQMNSLKPEDTAVYYCAARYYIHRGYDYDYWGQGTQVTVSS | high polyreactivity
QVQLVESGGGLVQAGGSLRLSCAASGNIFGKNVMGWYRQAPGKEREFVAAITSRGGRTNYADSVKGRFTISRDNAKNTVYLQMNSLKPEDTAVYYCAKDKNYPSGYGYWGQGTQVTVSS | high polyreactivity
QVQLVESGRGLVQAGGSLRLSCAASGRIFRWYDMGWYRKAPGKERELVAAISSRGGSTYYADSVKGRFTISRDNAKNTVYLQMNSLKPEDTAVYYCAADTSGWQPRYDYWGQGTQVTVSS | high polyreactivity
QVQLEESGGGLVQAGGSLRLSCAASGGTFTNYAMGWYRQAPGTERELVAAITDSGATTYYADSVKGRFTISRDNAKNTVYLQMNRLKPEDNAVYYCNAELDLYTDFDYWGQGTQVTESS | low polyreactivity
QVQLVESGGGLVQAGGSLRLSCAASGFTFERYSMGWYRQAAGKEMELVASISRRSGRTSYADSVKGRFTISRDNAKNTVYLQMKSLIPEDTAVYYCAVDDAYPDGYDYWGQGTQVTVSS | high polyreactivity
QVQLVESGGGLVQAGGSLRLSCAASGSIIQQYDKGWYRQAPGKHREFVAANSSSGGSTYYADSVKGRFTISRDNAKNTVYLQMNSLKPEDTAVYYCAVDTKGYTYVDYLHGSGEFGYWGQGTQVTVSS | low polyreactivity
QVQLVESGGGLVQAGGSLRLSCAASGNTFTTYAMGWYRQAPGKERELVAVISRSGGRTYYADSVKGRFTISRDNAKNTVYLQMNSLKPEDTAVYYCATRTYATSEYGYWGQGTQVTVSS | high polyreactivity
QVQLVESGGGLVQAGGSLRLSCAASGFIYARYAMGSYRQAPGKERELLAAISWSGARTYYADSVKGRFTISRDNAKNTVYLQMNSLKAEDTAVYYCAARRLSYSYDYWGQGTQVSVSS | high polyreactivity
QVQLVESGGGLVQAGGSLRLSCAASGFIFVPNAMGWYRQAPGKERELVAAIRWSDGTTYYADSVKGRFTISRDNAKNTVYLQMNSLKPEDTAVYYCATDHDPRYDYWGQGTQVTVSS | high polyreactivity
QVQLVESGGGLVQAGGSLRLSCAASGSTFSFYAMGWYRQAPGKERELVAAISSRGGSTYYADSVKGRFTISRDNAKNTVYLQMNSLKPEDTAVYYCAVRRYPHFYHRGGFNFNGYDYWGQGTQVTVSS | high polyreactivity
